Test results published in US7112317.

Legend:
human endoglin (human) [1] = molecular target: human endoglin (human) (UniProt P17813); assay: cell-based or functional assay
human endoglin (human) [2] = molecular target: human endoglin (human) (UniProt P17813); assay: FACS, indirect immunofluorescence on HUVEC, antibody at 10 µg/ml, MTSA control subtracted
human endoglin (human) [3] = molecular target: human endoglin (human) (UniProt P17813); assay: competitive binding inhibition on HUVEC by FACS; unlabelled TEC-4 against biotinylated TEC-11 as competitor, ratio 1:1
human endoglin (human) [4] = molecular target: human endoglin (human) (UniProt P17813); assay: FACS, postconfluent HUVEC stained with 20 µg/ml TEC-11, sorted endoglin^hi fraction; mean (SD) of 2 studies
human endoglin (human) [5] = molecular target: human endoglin (human) (UniProt P17813); assay: FACS, postconfluent HUVEC stained with 20 µg/ml TEC-11, sorted endoglin^lo fraction; mean (SD) of 2 studies

## TEC-4 (antibody)
Human endoglin (human) [1]
  complement fixation: lysis of HUVEC with guinea-pig complement (trypan blue) (% lysis at 100 µg/ml): 48
Human endoglin (human) [2]
  specific mean fluorescence intensity (MFI): 200
Human endoglin (human) [3]
  percent blocking: 11%

## TEC-11 (antibody)
Human endoglin (human) [1]
  complement fixation relative to TEC-4: 100 fold
  complement fixation: lysis of HUVEC with guinea-pig complement (trypan blue) (% lysis at 1 µg/ml): > 50
Human endoglin (human) [2]
  specific mean fluorescence intensity (MFI): 200
Human endoglin (human) [4]
  MFI: 270
Human endoglin (human) [5]
  MFI: 61.6
